Test results: patent publication US11360104, “Microbial-based biosensors” (TRUSTEES OF BOSTON UNIVERSITY)

Legend:
[1] = biological target: T1, PinR (AIY20223.2, TetR family) (Pimelobacter simplex); experiment: FRET; progesterone for half-maximal DNA release; QD/TF/DNA 1/4/18; conditions: tags: C-terminal His6, self-assembled on CdSe/CdS/ZnS quantum dot; label: Cy5 at 5' and 3'
T1 chain: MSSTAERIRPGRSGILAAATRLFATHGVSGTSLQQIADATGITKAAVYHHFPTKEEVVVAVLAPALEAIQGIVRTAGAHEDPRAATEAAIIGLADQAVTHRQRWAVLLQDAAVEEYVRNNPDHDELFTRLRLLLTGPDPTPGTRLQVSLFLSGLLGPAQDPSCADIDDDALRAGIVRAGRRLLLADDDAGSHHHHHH

[2] = biological target: T2, TetRc-tdTomato (UniProt P03039 P03039:1-219); experiment: FRET; only collisional quenching; conditions: tags: tdTomato fusion, Strep-tag purified; chain copies: 2; label: Cy5 at 5' and 3' of reverse strand
T2 chain: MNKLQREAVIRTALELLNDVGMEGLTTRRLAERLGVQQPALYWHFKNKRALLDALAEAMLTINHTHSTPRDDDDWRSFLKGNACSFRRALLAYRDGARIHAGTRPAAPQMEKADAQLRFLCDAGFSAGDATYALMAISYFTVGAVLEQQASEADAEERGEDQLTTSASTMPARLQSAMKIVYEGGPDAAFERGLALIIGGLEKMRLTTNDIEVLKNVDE
Method: (§1) For QD-based nanoconstructs, the his-tagged proteins self-assemble to the QD surface stoichiometrically according to the mixture ratio with a Poissonian distribution of proteins on the QD surface was used. […] Four his6-TetR monomers were used per QD for the titrations of Sensors 2 and 3 (FIG. 2A-C). […] Upon increasing DNA concentration, there is increased donor quenching in all three cases.
(§2) FRET assays. The FRET response of each sensor as a function of the donor-acceptor ratio was tested by titration of the acceptor while the concentration of the donor was kept constant. Briefly, the sensors were prepared in a solution of TBS+0.2% (w/v) BSA and 1× binding buffer (20 mM Tris-HCl, 5 mM MgCl_2, 5% glycerol, 50 ng/µl salmon sperm DNA). For Sensor 1, the final concentration of tetR-tdTomato was kept constant at 200 nM, while Cy5-modified DNA were titrated to yield donor-acceptor ratios ranging from 0-9. The sensor solution was pipetted into wells of a black, non-binding 384-well plate (Corning) with a final volume of 60 µl. For triplicate measurements, each of the above solutions were prepared with a final volume of 180 µl in microcentrifuge tubes and pipetted into 3 separate wells of 60 µl each.

[3] = biological target: T3, TetRc-6His (UniProt P03039 P03039:1-219); experiment: FRET; only collisional quenching; conditions: tags: His6, on quantum dot QD1; chain copies: 2; label: Cy5 at 5' and 3' of reverse strand
T3 chain: T2 chain
Method: as §1, §2
(§3) For Sensors 2 and 3, QDs and tetR-6His were mixed at a 1:4 ratio with a final QD concentration of 50 nM for self-assembly of the tetR-6His to the surface of the QDs[21]. […]

[4] = biological target: T4, TetRd-6His (UniProt P0ACT4 P0ACT4:2-218); experiment: FRET; only collisional quenching; conditions: tags: His6, on quantum dot QD2; chain copies: 2; label: Cy5 at 5' and 3' of reverse strand
Method: as §1, §2, §3

[5] = biological target: T1, PinR (AIY20223.2, TetR family); experiment: FRET; progesterone concentration for half-maximal DNA release; QD/TF/DNA 1/4/18; described as strongest binding sequence; conditions: tags: C-terminal His6, self-assembled on CdSe/CdS/ZnS quantum dot; label: Cy5 at 5' and 3'
[6] = biological target: T2, TetRc-tdTomato; experiment: FRET; aTc concentration for half-maximal DNA release; 5 mM MgCl2; conditions: tags: tdTomato fusion, Strep-tag purified; chain copies: 2; label: Cy5 at 5' and 3' of reverse strand
Method: (§4) At higher concentrations of aTc, binding of the TF and DNA is disrupted, reducing FRET, thereby increasing donor emission and reducing acceptor emission. Spectra are background subtracted to eliminate the effects of direct acceptor excitation. FIG. 3D-3F show the ratio of acceptor fluorescence intensity to donor fluorescence intensity as a function of aTc concentration. […] Sensor 1 was prepared with a 1:1:3 ratio of tdTomato:TF:DNA, while sensors 2 and 3 were prepared with a 1:4:18 ratio of QD:TF:DNA. tdTomato (200 nM) and QD (50 nM) concentrations were selected to keep TF concentration constant at 200 nM. Data are mean±standard deviation for n=3.
(§5) A TF to DNA ratio was chosen for each sensor (1:3 for Sensor 1, 1:4.5 for Sensors 2 and 3) and kept constant for subsequent experiments testing sensor sensitivity to aTc. Photoluminescence spectra were measured from sensors with increasing concentrations of aTc yielded changes in the ratio between the acceptor emission and donor emission (F_A/F_D). With increasing concentrations of aTc, F_A/F_D values decreased indicating unbinding of the DNA from the TF resulting in an increase in donor emission and decrease in acceptor emission (FIG. 3A-F). No changes were observed when aTc was titrated into a solution of non-binding donor-acceptor pairs (scrambled controls). […]

[7] = biological target: T3, TetRc-6His; experiment: as above; conditions: tags: His6, on quantum dot QD1; chain copies: 2; label: Cy5 at 5' and 3' of reverse strand
Method: as §4, §5

[8] = biological target: T4, TetRd-6His; experiment: FRET; aTc for half-maximal DNA release; lower DNA affinity than TetRc; 5 mM MgCl2; conditions: tags: His6, on quantum dot QD2; chain copies: 2; label: Cy5 at 5' and 3' of reverse strand

T4 sequence (P0ACT4 2-218, one chain of several): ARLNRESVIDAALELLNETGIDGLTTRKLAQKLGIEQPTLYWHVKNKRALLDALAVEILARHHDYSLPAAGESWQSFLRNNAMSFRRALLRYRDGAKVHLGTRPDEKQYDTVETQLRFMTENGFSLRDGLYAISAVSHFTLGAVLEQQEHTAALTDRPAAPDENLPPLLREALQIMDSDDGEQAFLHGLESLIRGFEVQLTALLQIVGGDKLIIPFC

B1: DNA4 (13,15-T,T) (dsDNA)
DNA 1: CCTTAACTAGCCGTTCTGTTAGTTATTC
DNA 2: GAATAACTAACAGAACGGCTAGTTAAGG
Binder B1 has an IC50 [1] of 0.15 µM.

B2: DNA3 (AIY20222.2) (dsDNA)
DNA 1: GCCTAACTAGCCGTTCGGCAAGTAATTC
DNA 2: GAATTACTTGCCGAACGGCTAGTTAGGC
B2 gave an IC50 [1] of 0.29 µM.

B3: Scrambled TetO control (dsDNA)
DNA 1: TCGTGAAACCGAGCGAGGGACACGCACA
DNA 2: TGTGCGTGTCCCTCGCTCGGTTTCACGA
B3: no binding [2]; no binding [3]; no binding [4].

B4: DNA1 (AIY20223.2) (dsDNA)
DNA 1: GCCTAACTAGCCGTTCGGCTAGTTATTC
DNA 2: GAATAACTAGCCGAACGGCTAGTTAGGC
B4 was tested, and the IC50 [5] was 0.46 µM.

B5: DNA2 (IG.AIY19519.15) (dsDNA)
DNA 1: GCCTAACTAGCCGATCGGCTAGTCATTC
DNA 2: GAATGACTAGCCGATCGGCTAGTTAGGC
Work on B5 yielded an IC50 [1] of 0.37 µM.

B6: TetO 28 bp (dsDNA)
DNA 1: GTCATCCCTATCATTGATAGAGATACTG
DNA 2: CAGTATCTCTATCAATGATAGGGATGAC
Work on B6 yielded an EC50 [6] of 0.218 µM, an EC50 [7] of 0.699 µM and an EC50 [8] of 0.133 µM.
